Measurements taken from article PMC10002482, “BMPER Improves Vascular Remodeling and the Contractile Vascular SMC Phenotype” (International Journal of Molecular Sciences, 2023).

B1: BMP-4 (bone morphogenetic protein 4) (ligand, UniProt P12644 293-408, looked up)
chain: SPKHHSQRARKKNKNCRRHSLYVDFSDVGWNDWIVAPPGYQAFYCHGDCPFPLADHLNSTNHAIVQTLVNSVNSSIPKACCVPTELSAISMLYLDEYDKVVLKNYQEMVVEGCGCR
notes: BMP4, immobilised on a CM5 chip in SPR
B2: recombinant IGFBP-4 (insulin-like growth factor-binding protein 4) (natural protein, UniProt P22692 22-258, looked up)
chain: DEAIHCPPCSEEKLARCRPPVGCEELVREPGCGCCATCALGLGMPCGVYTPRCGSGLRCYPPRGVEKPLHTLMHGQGVCMELAEIEAIQESLQPSDKDEGDHPNNSFSPCSAHDRRCLQKHFAKIRDRSTSGGKMKVNGAPREDARPVPQGSCQSELHRALERLAASQSRTHEDLYIIPIPNCDRNGNFHPKQCHPALDGQRGKCWCVDRKTGVKLPGGLEPKGELDCHQLADSFRE
notes: IGFBP4, recombinant protein immobilised or injected in SPR; whether this holds for the SPR proteins is surmised; source: recombinant

Experiments:
[1] = biological target: T1, recombinant BMPER (BMP endothelial cell precursor-derived regulator) ( (recombinant human and …, UniProt Q8N8U9 40-685)); test: SPR; BIAcore 2000; BMP-4 immobilised at 430 RU on CM5 by amine coupling; 0-320 nM BMPER or IGFBP-4 injected in HBS-EP; 1:1 model with mass transfer; apparent KD = kd/ka; conditions: both partners purified
T1 construct: BMPER, recombinant protein used as analyte in SPR; whether this holds for the SPR proteins is surmised; Secreted glycoprotein; also called soluble BMPER; source: recombinant
T1 sequence (Q8N8U9 40-685): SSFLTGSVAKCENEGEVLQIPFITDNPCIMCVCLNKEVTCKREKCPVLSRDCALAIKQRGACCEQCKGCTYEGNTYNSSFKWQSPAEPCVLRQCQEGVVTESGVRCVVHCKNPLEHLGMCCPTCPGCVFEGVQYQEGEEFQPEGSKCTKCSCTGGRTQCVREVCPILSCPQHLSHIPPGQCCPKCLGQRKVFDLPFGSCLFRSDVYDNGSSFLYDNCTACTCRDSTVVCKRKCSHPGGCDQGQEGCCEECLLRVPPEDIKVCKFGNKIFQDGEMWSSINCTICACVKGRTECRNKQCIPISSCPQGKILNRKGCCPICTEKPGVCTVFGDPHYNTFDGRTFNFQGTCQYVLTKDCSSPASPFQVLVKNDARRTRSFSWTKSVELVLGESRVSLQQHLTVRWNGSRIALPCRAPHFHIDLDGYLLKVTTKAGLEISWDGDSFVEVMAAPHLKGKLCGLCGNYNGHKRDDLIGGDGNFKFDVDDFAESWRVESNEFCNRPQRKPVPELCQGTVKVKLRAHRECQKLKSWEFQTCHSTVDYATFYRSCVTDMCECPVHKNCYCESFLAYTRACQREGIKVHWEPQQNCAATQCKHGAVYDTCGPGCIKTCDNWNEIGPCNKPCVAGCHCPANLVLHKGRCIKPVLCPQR

[2] = biological target: T1, recombinant BMPER (BMP endothelial cell …); test: SPR; BIAcore 2000; IGFBP-4 immobilised at 360 RU on CM5 by amine coupling; 0-320 nM BMPER injected in HBS-EP (0.01 M HEPES pH 7.4, 0.15 M NaCl, 3 mM EDTA, 0.005% P20), 180 s association, 180 s dissociation; 1:1 model with mass transfer; apparent KD = kd/ka; conditions: both partners purified

Row | Binder | Kd [1] [nM] | Kd [2] [nM]
1 | B1 | 1.5 | 
2 | B2 |  | 6.04 ± 1.86
